# Assay results from the nanobody polyreactivity screen of Harvey et al. (2022).
# Test: yeast display, Sf9 membrane polyspecificity reagent, FACS + sequencing; frameworks hold sequencing errors
# Procedure, shortened: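 Using colony PCR, genes from sorted yeast display clones were amplified, then sequenced on MiSeq at 2 × 250 and filtered by CDR length. The clones had been stained with 10% biotinylated, detergent-solubilized Sf9 membrane reagent for 1 hour at 4 °C and sorted by FACS into low and high (top ~1%) gates on anti-HA and streptavidin fluorescence. Polyreactivity labels come from the gate of origin.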
sequence,measurement,value
QVQLVESGVGLVQAGGSLRLSCAASGRIISRYAMGWYRQAPGKERELDAAISRRGGSTYYADSVKGRFTISRDNAKNTVYLQMNSLKPEDTAVYYCNADTGNRGYDYWGQGTQVTVSS,polyreactivity (PSR sort gate),high polyreactivity
QVQLVESGVGLVQAGGSLRLSCAASGRLFQYYAMGWYRQAPGKERELVASISGTGGSTYYADSVKGRFTISRDNAKNTVYLQMNSLKPEDTAVYYCAVRVKLQYWREYNYWGQGTQVTVSS,polyreactivity (PSR sort gate),high polyreactivity
QVQLVESGVGLVQAGGSLRLSCAASGRTFDLYAMGWYRQAPGKERELVAAITKGGGSTYYADSVKGRFTISRDNAKNTVYLQMNSLKPEDTAVYYCAARKYKRIYRISSGIGYYWGQGTQVTVSS,polyreactivity (PSR sort gate),high polyreactivity
QVQLVESGVGLVQAGGSLRLSCAASGRTFWYYGMGWYRQAPGKERELVAAISRSGGRTYYADSVKARFTISRDNAKNTVYLQMNSLKPEDTAVYYCGASYRRTFDYWGQGTQVTVSS,polyreactivity (PSR sort gate),high polyreactivity
QVQLVESGVGLVQAGGSLRLSCAASGRTIDHYAMGWYRQAPGKERELVAAISTTGGSTYYADSVKGRFTISRDNAKNTVYLQMNSLKPEDTAVYYCAARGLRTGGYWGQCTQVTVSS,polyreactivity (PSR sort gate),high polyreactivity
QVQLVESGVGLVQAGGSLRLSCAASGRTIKANAMGWYRQAPGKERELVAAISRRGGRTYYADSVKGRFTISRDNAKNTVYLQMNSLKPEDTAVYYCAVRWYSYRQRYNYWGQGTQVTVSS,polyreactivity (PSR sort gate),high polyreactivity
QVQLVESGVGLVQAGGSLRLSCAASGSIFASYAMGWYRQAPGKERELVAAISRSGTSTRYADSVKGRFTISRDNAKNTVYLQMNSLKPEDTAVYYCAARWYVFFRKYDYWGQGTQVTVSS,polyreactivity (PSR sort gate),high polyreactivity
QVQLVESGVGLVQAGGSLRLSCAASGSIFGYYVMGWYRQAPGKERELVAAISGSDSSTYYADSVKGRFTISRDNAKNTVYLQMNRLKPEDTAVYYCNADQRYYPVEFDYWGQGTQVTVSS,polyreactivity (PSR sort gate),low polyreactivity
QVQLVESGVGLVQAGGSLRLSCAASGSIFLRNDMAWYRQAPGKERELVAGISSVGSTYYADSVKGRFTISRDNAKNTVYLQMNSLKPEDTAVYYCAAERWGNPTDYQFWRPYDYWGQGTQVTVSS,polyreactivity (PSR sort gate),low polyreactivity
QVQLVESGVGLVQAGGSLRLSCAASGSIFQGYAMGWYRQAPGKERELVAGITSSGGRTRYADSLKGRFTISRDNAKNTVYLQMNSLKPEDTAVYSCAADYVRHIGYNYWGQGNQVTVSS,polyreactivity (PSR sort gate),high polyreactivity
QVQLVESGVGLVQAGGSLRLSCAASGSIFVPNTMRWYRQAPGKERELVAAITGGGSTDYADSVKGRFTISRDNAKNTVYLQMNSLKPEDTAVYYCNKDYWRDVAQDVLDGYDYWGQGTQVTVSS,polyreactivity (PSR sort gate),low polyreactivity
QVQLVESGVGLVQAGGSLRLSCAASGSIFYENAMGWYRQEPGKEREFVATIDLIGDRTFYADSVKVRFTISRDNAKNTVYLQMNSLKPEDTAVYYCAAERVGVFFRYDYWGQGTQVTVSS,polyreactivity (PSR sort gate),low polyreactivity
QVQLVESGVGLVQAGGSLRLSCAASGSIFYRNAMVWYRQAHGKERELVAAISGTGGSTYYADSLKGRFTISRDNAKNTVYLQMNSLKPEDTAVYYCASGVTYRHDYWGQGTQVTVSS,polyreactivity (PSR sort gate),high polyreactivity
QVQLVESGVGLVQAGGSLRLSCAASGSTFEVHSMGWYRQAPGKERELVATITRSGGSTYYADSVKGRFTISRDNGKNTVYLQMNSLKPEDTAVYYCNALWELKWGQGTQVTVSS,polyreactivity (PSR sort gate),low polyreactivity
QVQLVESGVGLVQAGGSLRLSCAASGSTFKFYSMGWYRQAPGTERELVASITSSSGPTYFADSVKGRFTNSLDNAKNTVYLQMNSLKQEDTAVYYCAKRPIRYYHLLRGNYWGHGTQVTVSS,polyreactivity (PSR sort gate),low polyreactivity
QVQLVESGVGLVQAGGSLRLSCAPSGSTLGYYVMGWYRQAPGKERELVAAITGGGSTDYADSVNGRFTISRDNAKNTVYLQMNSLKPEDTAVYYCAAERTRTGQLFWWGPIYDYWGLGTQVTVSS,polyreactivity (PSR sort gate),low polyreactivity
QVQLVESGVGLVQAGGSLRLSCASSGITFPSYTMGWYRQAPGKERELVATIRNGGSTYYADSVKGRFTISRDNAKNTVYLQMNSLKPEDTAVYYCAAVPLWDYKFFYYLLYDYWGQGTQVTVSS,polyreactivity (PSR sort gate),low polyreactivity
QVQLVESGVGLVQAGGSLRLSSAASGSIFLSYDMGWYRQAPGKERELVAAITQSGGSTYYADSVKGRFTISRDNAKNTVYLQMNSLKPEDTAVYYCAADYGYFPQETYPTYGYYYWGQGTQVTVSS,polyreactivity (PSR sort gate),low polyreactivity
QVQLVESGVGLVQAGGSLRLTCAASGSIFGRKAMGWYRKATGKERELVAAIRTRGGSTYYADSVKGRFTISRDNAKNTLYLQMNSLKPEDTAVFFCAAPGGGKVVDYWGQGTHVTVSS,polyreactivity (PSR sort gate),low polyreactivity
QVQLVESGVGLVQAGGSLRVSCAASGLTFAYYDMGWYRQAPGKERELVAAITWNGGSTYYADSVKGRFTISRDNAKNTVYLQMNSLKPEDTAVYYCAASWGYGYSGRFDYWGQGTQVSVSS,polyreactivity (PSR sort gate),high polyreactivity
QVQLVESGVGLVQAGGSLSLSCAASGFTFHDYAMGWYSQAPGKERELVAAIDWSGGRTYYADSVKGRFTISRDNAKNTVYLQMNSLKPEDTAVYYCAAVRYSRLYWYRLDYGGQGTQVTVSS,polyreactivity (PSR sort gate),low polyreactivity
QVQLVESGVGLVQAGGSLSLSCAASGIIFYWYAMGWYRQAPGKEREMVATITSTGGSTNYADSVKGRFTISRDNAKNSVYVQMNSLKPEYTAVYYCSTSGPQYYSRNFDYWGQGTQVTVSS,polyreactivity (PSR sort gate),low polyreactivity
QVQLVESGVGLVQAGGSLSLSCAASGSTFPKYAMGWYRQAPGKERELVAAISGSGGSTYYADSVKGRFTISRDNAKNTVYLQMNSLKREDTAVYYCAVAWNVRGVGARQRYIYGYWGQGTQVTVSS,polyreactivity (PSR sort gate),high polyreactivity
QVQLVESGVGLVQAGGSLSLSCAASGTFVLYAMGWYRQAPGKERELVAAISKTGRTYYADSVKGRFTISRDNAKNTVYLQMNSLKPEDTAVYYCAAQRFSKFGYWGQGTQVTVSS,polyreactivity (PSR sort gate),high polyreactivity
QVQLVESGVGLVQARGSLRLSCAASGITFRRYAMGWYRQPPGKERELVAAITSSGGSTYYADSVKGRFTIPRDNAKNTVYLQMNSLKPEDTAVYYCAAAFFSQYYLYDYWGQGTQVTVSS,polyreactivity (PSR sort gate),high polyreactivity
QVQLVESGVGLVQARGSLRLSCASSGSILIYNAMGWYRQAPGKVRELVAGISRRGDSTYYADSVKGRFTISRDNAKKTVYLQMNSLKPEDTAVYYCAALGKYIVAWSGDYWGQGTQVTVSS,polyreactivity (PSR sort gate),low polyreactivity
QVQLVESGVGLVQAVGSLRLSCAASGSTFYYYAMGWYRQAPGKERELVAAISWSGAYTFYSDSVKGRFTISRDNAKNTVYLQMNSLKPEDTAVYYCAARYYGQPQYQPLYYWGQGTQVTVSS,polyreactivity (PSR sort gate),high polyreactivity
QVQLVESGVGLVQPGGSLRLIRAAYGRILRDYDMGWYSTAPRKERELVAAINWSDGSTYYADSVKGRFTISRDNAKYTVYLQMNCQKPVDTAVYYCAAEPYVFGLSSKRFWYNYWGQGTEVTVSS,polyreactivity (PSR sort gate),low polyreactivity
QVQLVESGVGLVQSGGSLRLSCAASGFSIEPYAMGLYRQAPGKERELVAAISWSGGSTYYADSVKGRFTISRDNAKNTVYLQMNSLKPEDTAVYYCAAEWYNSAYYEYDYWGQGTQVTVST,polyreactivity (PSR sort gate),high polyreactivity
QVQLVESGVRLVQAGGSHRLSCAASARTFYPNAMGWYRQAPGKEREFVARISDSGGSSYYADSVKGRFTISRDNAKNTVYLQMNSLKPEDTAVYYCAADYVDPRVNEYDYWGQGTQVTVST,polyreactivity (PSR sort gate),low polyreactivity
QVQLVESGVRLVQAGGSLRLSCAASGFTFRLYAMGWYIQAPGKERELVAATTSGGSTYYADSVKGRFTISRDNAKNTVYLQMNSLKPEDTAVYYCNKLYRTSVEYDYWGQGTQVTVSS,polyreactivity (PSR sort gate),high polyreactivity
QVQLVESGVVLVQAGGSLRLSCAASGSIFAGYVMGWYRQAPGKERELVASISSGTGTYYADSVKGRFTISRDNAKNTVYLQMNSLKPEDTAVYYCAAECYRTVQFIRSRWSYTYDYWGQGTQVTVSS,polyreactivity (PSR sort gate),low polyreactivity
QVQLVESLGGLLHAGGSLRLSCGASGSIFGSNALGWYRQAPGKERELVAAINYSGGSTTYADSVKGRFTISRDNAKNTVYLQMTSLKPEDTAVYYCNADVLYQFDEGVWSDYWGQGTQVTVSS,polyreactivity (PSR sort gate),low polyreactivity
QVQLVESLGGLVQAGGSLRLSCAASGFTFGAYAMGLYRPAPGKERELVATMDWRGSSTYYADSVKGRFTISRDNAKNTVYLQINCLKPVDTAVYYCAARLARGSYAYEYWGHGTQVTVSS,polyreactivity (PSR sort gate),low polyreactivity
QVQLVESRAVLVQAGGSLRLSCAASGSIFYVYAMGWYRQAPGKERELVAAISSSSDSTYADSVKGRFTISRDNAKNTVYLQMNSLKPEDTAVYYCATAWYYGIVRGGLPYDYWGHGTQVTVSS,polyreactivity (PSR sort gate),low polyreactivity
QVQLVESRGAIVQAGASLRLSSAASGFTFWDYAMGCYRQAPGKERELVAAISSRGTRTYYADSVKGRFTISRDNAKNTVYLQMNSLKPEDTAVYYCATASPDPDYIHNYWGQGTQVTVSS,polyreactivity (PSR sort gate),high polyreactivity
QVQLVESRGALVQAGASLRLSCAASALTFVKNVMGWYRQAPGKERELVAAISSGGSTYADSVKGRFTISRDNAKNTVYLQMNSLKPEDTAVYYCNADFRARNYHYYPRRFKYYYWGQGTQVTVSS,polyreactivity (PSR sort gate),high polyreactivity
QVQLVESRGALVQAGGSLRLSCAATGSSFNRYAMRWYRQAPRKERELVAAISSGRTTNYADSVKGRFTISRDNAKNTVYLQMNSLKPEDTAVYYCNRKFRYSSHTNYYYWGQGTQVTVSS,polyreactivity (PSR sort gate),high polyreactivity
QVQLVESRGCLVQAGGSHRLSCAASGSISDVNPMGWYRQARGNERELFAAMTSRRGGTNYADSVKGRFTISRDYAKNTVYLQMNSLNPEDTAVYYCAVYVSTKASKQGYGPGDYWGQGTQVTVSS,polyreactivity (PSR sort gate),low polyreactivity
QVQLVESRGCLVQAGVSLRLSCSASGSIFKIYAMGWYRQAPGKERELVATITGIADSTYYADSVKGRFTISRDNAKNTVYLLMNSLKPDDNAVYYCAADNYVADYDYWGQGTQVTVSS,polyreactivity (PSR sort gate),low polyreactivity
QVQLVESRGGIVQAGGSLRLSCAASGRIFSRYAMGWSRQAPGKEREMVAAISWSGGSTFYADSVKGRFTISRDNAKNTVYLQMNSLKPEDTAVYDCAAYPRFYGGKDGEYGYWGQGTQVTVSS,polyreactivity (PSR sort gate),high polyreactivity
QVQLVESRGGIVQAGGSLRLSCAASGSIFTGNAMGWYRQAPGKERELVAAITSSAGSTYYADSVKGRFTISRDNAQYTVYLQMNSLKPEDTAVYYCAKDYYSKHFPNYDYWGQGTQVTVSS,polyreactivity (PSR sort gate),low polyreactivity
QVQLVESRGGLDQAGGSLRLSCAASGSIFNAYVMGWYRQAPGKERELVAAISRSGGRTYYADSVKGRFTISRDNAKNTVYLQMNSLKPEDTAVYYCAASTIWHYDSWGQGTQVTVSS,polyreactivity (PSR sort gate),high polyreactivity
